The record followed here is article PMC5430508.

The test addresses 8G-AIDA receptor: eight tandemly repeated protein G C2 domains linked with AIDA, on the surface of Escherichia coli BL21 cells (BL21/8G) (not stated (streptococcal)). The test can be described thus: ELISA; bacteria coated on poly-L-lysine-treated 96-well plates (10^7 cfu/well added; about 6.7 × 10^6 cfu/well coated), blocked with 5% skim milk; HRP-conjugated goat anti-mouse IgG Fc (1 μg/mL), room temperature, 1 h; ABTS, absorbance at 405 nm.

On to “HRP-conjugated goat anti-mouse IgG Fc (antibody)”, for which the fold of antibody trapped against BL21/1G cells amounted to 18.9 fold.
